# Assay results: article PMC2712759 (2009)
# Biological target: purified recombinant Hsp70 (UniProt P0DMV8 1-641)
# Sequence (P0DMV8 whole entry): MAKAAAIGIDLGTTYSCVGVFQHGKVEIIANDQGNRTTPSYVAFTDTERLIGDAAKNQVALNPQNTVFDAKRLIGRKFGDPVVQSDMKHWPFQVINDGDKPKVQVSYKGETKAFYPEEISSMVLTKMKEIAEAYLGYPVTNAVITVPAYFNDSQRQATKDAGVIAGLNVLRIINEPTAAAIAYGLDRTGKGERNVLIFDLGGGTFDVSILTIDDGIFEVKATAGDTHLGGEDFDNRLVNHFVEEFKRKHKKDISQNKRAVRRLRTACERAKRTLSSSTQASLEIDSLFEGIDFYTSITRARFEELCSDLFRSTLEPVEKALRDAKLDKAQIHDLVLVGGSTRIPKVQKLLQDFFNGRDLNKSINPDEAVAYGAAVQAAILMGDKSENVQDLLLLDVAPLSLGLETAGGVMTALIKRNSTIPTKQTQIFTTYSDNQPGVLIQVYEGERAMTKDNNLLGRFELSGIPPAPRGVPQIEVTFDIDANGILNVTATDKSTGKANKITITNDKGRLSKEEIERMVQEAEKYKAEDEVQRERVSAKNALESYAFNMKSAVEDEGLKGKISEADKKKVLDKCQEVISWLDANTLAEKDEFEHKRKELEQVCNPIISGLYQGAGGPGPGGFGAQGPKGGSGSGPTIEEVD
binder,measurement,value
recombinant normal PABPN1 (wt-PABPN1) from E. coli (natural protein) MAAAAAAAAAAGAAGGRGSGPGRRRHLVPGAGGEAGEGAPGGAGDYGNGLESEELEPEELLLEPEPEPEPEEEPPRPRAPPGAPGPGPGSGAPGSQEEEEEPGLVEGDPGDGAIEDPELEAIKARVREMEEEAEKLKELQNEVEKQMNMSPPPGNAGPVIMSIEEKMEADARSIYVGNVDYGATAEELEAHFHGCGSVNRVTILCDKFSGHPKGFAYIEFSDKESVRTSLALDESLFRGRQIKVIPKRTNRPGISTTDRGFPRARYRARTTNYNSSRSRFYSGFNSRPRGRVYRGRARATSWYSPY,Kd,14 µM
